# Source: patent US11472844B2, “Peptidomimetics, method of synthesis and uses thereof” (priority 2017, dated 2022)
# *: point of attachment. X1 = CC[N+]1=C(/C=C/C=C/C=C2N(CCCCCC(=O)NCCN3C(=O)CC(*)C3=O)c3ccc(S(=O)(=O)O)cc3C2(C)C)C(C)(C)c2cc(S(=O)(=O)[O-])ccc21
# How the values were obtained:
# trypsin = trypsin (Sus scrofa, UniProt P00761); conditions: trypsin digestion, 37°C, pH8, followed up to 24 h
# Experimental: Trypsin proteolysis. MUB40 (SEQ ID NO: 3)-Cy5 and RI-MUB40 (SEQ ID NO: 2)-Cy5 were dissolved in 50 mM ammonium bicarbonate, pH 8. Prior to digestion and owing to the propensity of maleimide derivatives to undergo ring-opening in a basic environment (Fontaine et al., 2015), we incubated both peptides at 37° C. overnight. Ring-opening completion was checked before trypsin addition. […] Lyophilized trypsin (Thermo scientific) was reconstituted using 50 mM acetic acid, diluted with 50 mM ammonium bicarbonate and added to the peptide solution so as to obtain a final peptide concentration of 0.25 mg/mL and a protease to protein ratio of 1:20 (w/w). Samples were directly incubated on the injection sampler thermostated at 37° c. HPLC and LC-MS analyses were performed as previously described above, applying a 15% to 40% linear gradient of acetonitrile in 10 mM ammonium acetate over 20 minutes.
# Hydrolysis experiments were done in solution at 37° c., pH8 and monitored by HPLC by measuring the peak area of the remaining intact peptides.
# [1] = test system: colonic mucus layer and infiltrated neutrophils; test: Human colonic explant infected with Shigella flexneri, two-photon microscopy; conditions: 1 μg/mL, after fixation and permeabilization
# Excerpt: Ex vivo infection of human colonic tissue. Human colon explants were infected with S. flexneri 5a (M90T) pGFP, as described in (Nothelfer et al. 2014) and adapted from (Coron et al. 2009). Briefly, colonic tissues were cut into ˜5 cm^2 segments and pinned flat, with the submucosa facing down, onto a 4% agarose layer in tissue culture Petri dishes containing DMEM/F12 culture medium (Invitrogen) supplemented with 10% FBS, glutamine, and 2.1 g/L NaHCO3(Sigma-Aldrich). S. flexneri (M90T) 5a pGFP was added at ˜2×10^8 bacteria per cm^2 of tissue. Bacteria were allowed to settle for 15 min at room temperature before incubation at 37° C., 5% CO2 for 6 h on a slowly rocking tray. Tissue was fixed by overnight incubation with 4% PFA (Euromedex) and 0.1 M Hepes (Gibco) in PBS. For whole-mount staining, tissues were fixed on a 40×11-mm tissue culture dish (TPP) with Histoacryl tissue glue (Braun). To obtain 150-μm-thick sections, the tissue was embedded in low-melting agarose according to (Snippert et al. 2011) and cut with a vibratome (VT1000E; Leica).
# Two-photons microscopy. […] MUB40-Cy5 was detected using multiphoton excitation (MPE, magenta), Acquisitions were performed with Zen 2008 SP 1.1 software acquisition package developed by ZEISS. […]
# Chain of trypsin (P00761 9-231): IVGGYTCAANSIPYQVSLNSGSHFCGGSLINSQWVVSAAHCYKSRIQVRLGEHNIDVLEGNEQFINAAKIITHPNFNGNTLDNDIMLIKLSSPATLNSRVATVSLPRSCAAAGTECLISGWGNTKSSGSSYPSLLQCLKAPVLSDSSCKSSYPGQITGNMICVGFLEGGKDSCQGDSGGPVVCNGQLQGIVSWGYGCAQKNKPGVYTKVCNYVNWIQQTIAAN
substance,measurement,setting,value
Ac-C(X1)TAEGIKKFEGDGYELFKDNFPAGEKFDNDDTNDQFYTVIF-NH2 [Cy5-MUB40#1],degradation by trypsin (in words),trypsin,almost completely degraded within 3 h
same,labelling of colonic mucus layer and infiltrated neutrophils,[1],labelled
